B1: TPR t1 (parent)
chain: GACCAAUCUGCCCUCAGAGCUCGAGAACAUCUUCGGAUGCAGAGGAGGCAGGCUUCGGUGGCGCGAUAGCGCCAACGUCCUCAACCUCCAAUGCAUCCCACCACAUGAUGAUGCCUGAAGAGCCUUGGUUUUUUG

Variants of: B1
Experiment: polymerase ribozyme fitness, log enrichment relative to wild type (log ratio); higher = more active; in vitro selection for triplet polymerase activity
In short: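 Only genotypes with ≥10 input reads and ≥1 read per output were kept after Illumina sequencing of input and output libraries. These libraries were PCR-built, transcribed mutants of each subunit of a heterodimeric triplet polymerase ribozyme, each put through one triplicate in vitro selection round with frozen incubation at −7 °C, gel excision of extended constructs, streptavidin-bead capture and RT-PCR. Fitness is a logarithmic ratio of genotype enrichment to wild-type enrichment, from inverse-variance-weighted replicate averages, with the logarithm in base 2.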

Variant	polymerase ribozyme fitness (log ratio)
GACCAAUCUGCCCUCAGCGCUCGAGAACAUCUUCGGAUGCAGAGGAGGCAGGCUUCGGUGGCGCGAUAGCGCCAACGUCCUCAACCUCCAAUGCAUCCCACCACAUGAUGAUGCCUCAAGAGCCUUGGUUUUUUG [A18C G117C]	-4.33
GACCAAUCUGCCCUCAGGGCUCGAGAACAUCUUCGGAUGCAGAGGAGGCAGGCUUCGGUGGCGCGAUAGCGCCAACGUCCUCAACCUCCAAUGCAUCCCAGCACAUGAUGAUGCCUCAAGAGCCUUGGUUUUUUG [A18G C101G G117C]	-4.66
GACCAAUCUGCCCUCAGGGCUCGAGAACAUCUUAGGAUGCAGAGGAGGCAGGCUUCGGUGGCGCGAUAGCGCCAACGUCCUCAACCUCCAAUGCAUCCCACCACAUGAUGAUGCCUGAAGAGCCUUGGUUUUUUG [A18G C34A]	-5.57
GACCAAUCUGCCCUCAGGGCUCGAGAAAAUCUUCGGAUGCAGAGGAGGCAGGCUUCGGUGGCGCGAUAGCGCCAACGUCCUCAACCUCCAAUGCAUCCCACCACAUGAUGAAGCCUGAAGAGCCUUGGUUUUUUG [A18G C28A U112A]	-4.92
GACCAAUCUGCCCUCAGGUCUCGAGAACAUCUUCGGAUGCAGAGGCGGCAGGCUUAGGUGGCGCGAUAGCGCCAACGUCCUCAACCACCAAUGCAUCCCACCACAUGAUGAUGCCUGAAGAGCCUUGGUUUUUUG [A18G G19U A46C C56A U87A]	-2.82
GACCAAUCUGCCCUCAGGCCUCGAGAACAUCUUCGGAUGCAGAGGAGGCAGGUUUCGGUGGCGCGAUAGCGCCAACGUCCUCAACCUCCAAUGCAUCCCACCACAUGAUGUUGCCUGAAGAGCCUUGGUUUUUUG [A18G G19C C53U A111U]	-4.72
GACCAAUCUGCCCUCAGGGCUCGAGAACAUCUUCGGAUGCAGAGGAGGCAGCCUUCGGUGGCGCGAUAGCGCCAACGUCCUCAACCUCCAAUGCAUCCCACCACAUGAUGAUGCCUGAAGAGCCUUGGUUUUUUG [A18G G52C]	-3.49
GACCAAUCUGCCCUCAGCGCUCGAGAACAUCUUCGGAUGCAGAGGAGGCAGGCUUCGGUGGCGCGAUAGCGCCAACGUCCUCAACCUCCAAUCCAUCCCACCACAUGAUGAUGCCUGAAGAGCCUUGGUUUUUUG [A18C G93C]	-3.24
GACCAAUCUGCCCUCAGUGCUCGAGCACAUCUUCGGAUGCAGAGGAGGCAGGCUUCGGUGGUGCGAUAGCGCCAACGUCCUCAACCUCCAAUGCAUCCCACCACAUGAUGAUGCCUGAACAGCCUGGGUUUUUUG [A18U A26C C62U G120C U126G]	-7.02
GACCAAUCUGCCCUCAGGGCUCGAGAACAUCUUCGGAUGCAGAGGAGGCAGGCUUCGGUGGUGCGAUAGCGCCCACGUCCUCAACCUCCAAUGCAUCCCACCACAUGAUGAUGCCUGAAGAGCCUUGGUUUUUUG [A18G C62U A74C]	-5.71
GACCAAUCUGCCCUCAGGGCUCGAGAACAUCUUCGGAUGCAGAGGAGGCAGGCAUCGGUGGCGCGAUAGCGCCAACAUCCUCAACCUCCAAUGCAUCCCACCACAUGAGGAUGCCUGAAGAGCCUUGGUUUUUUG [A18G U54A G77A U109G]	-3.13
GACCAAUCUGCCCUCAGUGCUCGAGAACGUCUUCGGAUGCAGAGGAGGCAGGCUUAGGUGGCGCGAUAGCGCCAACGUCAUCAACCUCCAAUGCAUCCCACCACAUGAUGAUGCCUGAAGAGCCUUGGUUUUUUG [A18U A29G C56A C80A]	-6.14
GACCAAUCUGCCCUCAGCGCUCGAGAACAUCUUCGGAUGCAGAGGAGGCAGGCUUCGGUGGCUCGAUAGCGCCAACGUCCUCAACCUCCAAUGCAUCCCACCACAUGAUGAUGCCUGAAGAGCCUUGGUUUUUUG [A18C G63U]	-4.53
GACCAAUCUGCCCUCAGGGCUCGAGAACAUCUUCGGAUGCAGAGGAGGCAGGCUUCGGUGGCGCGAUAGCGCCAACGCCCUCAACCUCCAAUGCAUCCCACCACAUGAUGAUGCCUGAAGAGCCUUGGUUUUUUG [A18G U78C]	-2.98
GACCAAUCUGCCCUCAGGGCUCGAGAACAUCUUCGGAUACAGAGGAGGCAGGCUUCGGUGGCGAGAUAGCGCCAACGUCCUCAACCUCCGAUGCAUCCCACCACAUGAUGAUGCCUGAACAGCCUUGGUUUUUUG [A18G G39A C64A A90G G120C]	-5.87
GACCAAUCUGCCCUCAGGGCUCGAGAACAUCUUCGAAUGCAGAGGAGGCAGGCUUCGGUGACGCGAUAGCGCCAACGUCCUCAACCUCCAAUGCAUCCCACCACAUGAUGAUGCCCGGAGAGCCUUGGUUUUUUG [A18G G36A G61A U116C A118G]	-3.23
GACCAAUCUGCCCUCAGGGCUCGAGAACAUCUUCGGAUGCAGAGGAGGCAGGCAUCGGUGGCGCGAUAGCGCCAACGUCCUCAACCUGCAAUGCAUCCCACCACAUGAUGCUCCCUGAAGAGCCAUGGUUUUUUG [A18G U54A C88G A111C G113C U125A]	-3.51
GACCAAUCUGCCCUCAGCGCUCGAGAACAUCCUCGGAUGCAGAGGAGGCAGGCUUCGGUGGCGCGAUAGCGCCAACGUCCUCAACCUCCAAUGCAUCCCACCACAUGAUGAUGCCUGAAGAGCCUUGGUUUUUUG [A18C U32C]	-2.05
GACCAAUCUGCCCUCAGUGCUCGGGAACAUCUUCGGAUGCAGAGGAGGCAGGCUUCGGUGGCGCGAUAGCGUUAACGUCCUCAACCUCCAAUGCAUCCCACCACAUGAUGAUGCCUGAAGAGCCUUGGUUUUUUG [A18U A24G C72U C73U]	-4.35
GACCAAUCUGCCCUCAGCGCUCGAGAACAUCUUCGGAUGCAGAGGAGGCAGGCUUCGGUCGCGCGAUAGCGCCAACGUCCUCAACCUCCAAUGCAUCCCACCACAUGAUGAUGCCUGAAGAGCCUUGGUUUUUUG [A18C G60C]	-2.9
GACCAAUCUGCCCUCAGGGCUCGAGAACAUCUUCGGAUGCAGAGGAGGCAGGCUUCGGUGGCGCGAUAGAGCCAACGUCCUCAACCUCCACUGCAUCCCACCACAUGAUGAUACCUGAAGAGCCUUGGUUUUUUG [A18G C70A A91C G113A]	-2.9

Variant	polymerase ribozyme fitness (log ratio)
GACCAAUCUGCCCUCAGCGCUCGAGAACAUCUUCGGAUGCAGAGGAGGCAGGCUUCGGUGACGCGAUAGCGCCAACGUCCUCAACCUCCAAUGCAUCCCACCACAUGUUGAUGCUUGAAGAGUCUUGGUUUUUUG [A18C G61A A108U C115U C123U]	-6.75
GACCAAUCUGCCCUCAGGGCUCGAGAACAUCUUCGGAUUCAGAGGAGGCAGGCUUCGGUGGCGCGAUAGCGCCAACGUCCUCAACCUCCAAUGCAUCCCACCACAUGAUGAUGCCUGAAGAGCCUUGGUUUUUUG [A18G G39U]	-3.93
GACCAAUCUGCCCUCAGGGCUCGAGAACAUCUUCGGAUGCAGAGGAGGCAGGCUUCGGUGGCGCGAUAGCGCCCACGUCCUCAACCUCCAAUGCAUACCACCACAAGAUGAUGCCUGAAGAGCCUUGGUUUUUUG [A18G A74C C97A U106A]	-6.31
GACCAAUCUGCCCUCAGGACUCGAGAACAUCUUCGGAUGCAGAGGAGGCAGGCUUCGGUGGCGCGAUAGCGCCAACGUCCUCAACCUCCAAUGCACCCCACCACAUGAUGAUGCAUGAAGAGCCUUGGUUUUUUG [A18G G19A U96C C115A]	-4.42
GACCAAUCUGCCCUCAGGGCUCGAGAACAUCUUCGGAUGCAGAGGAGGCAGGCUUCGGUGGCGCGAUAGUGCCAACGUCCUCAACCUCCAAUGCAUCCCACCACAUGAUGAUGCCUGAAGAGCCUUGGUUUUUUG [A18G C70U]	-2.4
GACCAAUCUGCCCUCAGCGCUCGAGAACAUCUUCGGAUGCAGAGGAGGCAGGCUUCGGUGGCGCGAUAGCGCCAACGUCCUCAACCUCCAAGGCAUCCCACCACAUGAUGAUGCCUGAAGAGCCUUGGUUUUUUG [A18C U92G]	-2.86
GACCAAUCUGCCCUCAGCGCUCGAGAACAUCUUCGGAUGCAGAGGAGGCAGGCUUCGGUGGCGCGAUAGCCCCAACGUCCUCAACCUCCAAUGCAUCCCACCACAUGAUGAUGCCUGAAGAGCCUUGGUUUUUUG [A18C G71C]	-4.19
GACCAAUCUGCCCUCAGUGCUCGAGGACAUCUUCGGAUGCAGAGGAGGCAGGCUUUGGUGGCGCGAUAGCGCCAACGUCCUCAACCUCCAAUGCAUCCCACCACAUGAUGAUGCCUGAAGAGGCUUGGUUUUUUG [A18U A26G C56U C123G]	-0.0936
GACCAAUCUGCCCUCAGGGCUGGAGAACAUCUUCGGAUGCAGAGGAGGCAGGCUUCGGUGGCGCGAUAGCGCCAACGUCCUCAACCUCCAAUGCAUCCCACCAAAUGAUGAUGCCUGAAGAGCCUUGGUUUUUUG [A18G C22G C104A]	-5.54
GACCAAUCUGCCCUCAGGGCUCGAGAACAUCUUCGGAUGCAGAGGAGACAGGCUUCGGUGGCACGAUAGCGCCAACAUCCCCAACCUCCAAUGCAUCCCACCACAUGAUGAUGCCUGAAGUGCCUGGGUUUUUUG [A18G G48A G63A G77A U81C A121U U126G]	-5.32
GACCAAUCUGCCCUCAGCGCUCGAGAACAUCUUCGGAUGCAGAGGAGGCAGGCUUCGGUGGCGCGAUAGCGCCAACGUCCUCAACCUCCAAUGCAUCCCACCACAUGAUGACGCCUGAAGAGCCUUGGUUUUUUG [A18C U112C]	-0.328
GACCAAUCUGCCCUCAGCGCUCGAGAACAUCUUCGGAUGCAGAGGAGGCAGGCUUCGGUGGCGCGAUAACGCCAACGUCCUCAACCUCCAAUGCAUCCCACCACAUGAUGAUGCCUGAAGAGCCUUGGUUUUUUG [A18C G69A]	-6.17
GACCAAUCUGCCCUCAGCGCUCGAGAACAUCUUCGGAUGCAGAGGAGGCAGGCUUCGGUGGCGCGAUAUCGCCAACGUCCUCAACCUCCAAUGCAUCCCACCACAUGAUGAUGCCUGAAGAGCCUUGGUUUUUUG [A18C G69U]	-0.162
GACCAAUCUGCCCUCAGGGCUCAAGAACAUCUUCGGAUGCAGAGGAGGCAGGUUUCGGCGGCGCGAUAGCGCCAACGUACUCAACCUCCAAUGCAUCCCACCACAUGAUGAUGCCUCAAGAGCCUUGGUUUUCUG [A18G G23A C53U U59C C79A G117C U133C]	-5.37
GACCAAUCUGCCCUCAGGGCUCGAGAACAUCUUCGGAUGCAGAGGAGGCAGGCUUCGGUGGCGCGAUAGCGCCAACGUCCUCAACCUCCAAUGCAUCCCACCACAUGAUGAUGCCUGAAGAGCCUUGGUGUUUUG [A18G U130G]	-4.25
GACCAAUCUGCCCUCAGGGCUCGAGAACAUCUUCGGAUGCAGAGGAGGCAGGCUUCGGUGGCGCGAUAGCGCCAACGUCCUCAACCUCCAAUGCAUCCCACCACAUGAUGAUGCCUGAAGAGCCUUGGCUUUUUG [A18G U129C]	-4.73
GACCAAUCUGCCCUCAGGGCUCGAGAACAUCUUCGGAUGCAGAGGAGGCAGGCUUCGGUGGCGCGAUAGUGCCAACGUCCUCAACCUCCAAUGCUUCCCACCACAUGAUGAUGCCUGAAGAGCAUUGGUUUUUUG [A18G C70U A95U C124A]	-4.13
GACCAAUCUGCCCUCAGUGCUCGAGAACUUCUUCGGAUGCAGAGGAGGCAGGCGUCGGUGGCGCGAUAGCGCCAACGCCCUCAACCUCGAAUGCAUCCCACCACAUGAUGAUGGCUGAAGAGCCUUGGUUUUUUG [A18U A29U U54G U78C C89G C114G]	-3.24
GACCAAUCUGCCCUCAGCGCUCGAGAACAUCUUCGGAUGCAGAGGAGGCAGGCUUCGGUGGCGCGAUAGCGCCAACGACCUCAACCUCCAAUGCAUCCCACCACAUGAUGAGGCCUGAAGAUCCUUGGUUUUUUG [A18C U78A U112G G122U]	-4.43
GACCAAUCUGCCCUCAGCGCUCGAGAACAUCUUCGGAUGCAGAGGAGGCAGGCUUCGGUGGCCCGAUAGCGCCAACGUCCUCAACCUUCAAUGCAUGCCACUACAUGAUGAUGCCUGAAGAGUCUUGGUUUUUUG [A18C G63C C88U C97G C102U C123U]	-6.68
GACCAAUCUGCCCUCAGGACUCGAGAACAUCUUCGGAUGCAGAGGAGGCAGGCUUCGGUGGCGCGAUAGCGCCAACGUCCUCAACCUCCAAUGCAUCCCACCACAUGAUGAUGCCUGAAGAGCCUUGGUUUUUUG [A18G G19A]	-1.4
